Experiments:
solid-phase tTG = target: T1, solid-phase tTG (Homo sapiens, UniProt P21980); test: Competitive ELISA using tTG-coated plates; type: binding; details: pre-incubation with competitor, 0.6-20 μg/ml
T1 construct: purchased Eurospital
T1 sequence (P21980 1-687): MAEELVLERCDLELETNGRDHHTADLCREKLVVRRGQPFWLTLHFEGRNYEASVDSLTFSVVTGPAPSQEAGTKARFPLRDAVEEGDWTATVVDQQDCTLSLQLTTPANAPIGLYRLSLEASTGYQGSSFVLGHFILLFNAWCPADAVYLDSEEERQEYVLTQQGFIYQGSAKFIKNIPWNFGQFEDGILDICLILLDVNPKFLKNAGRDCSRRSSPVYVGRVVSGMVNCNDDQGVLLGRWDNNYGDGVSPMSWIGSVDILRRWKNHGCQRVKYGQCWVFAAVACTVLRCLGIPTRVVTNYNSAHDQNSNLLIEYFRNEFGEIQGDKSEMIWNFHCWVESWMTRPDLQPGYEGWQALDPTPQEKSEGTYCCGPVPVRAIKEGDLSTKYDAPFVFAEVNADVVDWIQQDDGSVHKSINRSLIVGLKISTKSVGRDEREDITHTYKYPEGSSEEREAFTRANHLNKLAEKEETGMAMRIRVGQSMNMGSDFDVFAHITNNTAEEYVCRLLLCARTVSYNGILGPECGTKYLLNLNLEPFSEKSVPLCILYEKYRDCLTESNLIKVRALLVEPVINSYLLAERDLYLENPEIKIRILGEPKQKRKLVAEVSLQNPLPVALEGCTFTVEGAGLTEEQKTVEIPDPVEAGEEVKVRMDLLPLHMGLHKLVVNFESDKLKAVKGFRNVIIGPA
Experimental: (§1) The direct and competitive ELISA for antibody binding to the synthetic peptides have already been described elsewhere. Briefly, the synthetic peptides were used at a concentration of 20 μg/ml in PBS to coat polystyrene plates (Nunc, Roskilde, Denmark). Plates were then blocked for 1 h with PBS 3% BSA. Serum samples were diluted in diluting buffer (PBS 1% BSA 0.05% Tween) and incubated on the plates for 3 h at room temperature. Plates were then washed twice with PBS 1% Tween and twice with PBS. Bound antibodies were detected by an alkaline phosphatase-conjugated anti-human IgA antiserum (1:1,000 in diluting buffer) (Sigma, St. Louis, Mo., United States) or with an alkaline phosphatase-conjugated anti-human IgG antiserum (1:2,000 in diluting buffer) (Sigma). In some experiments, an alkaline phosphatase-conjugated anti-rabbit IgG antiserum (1:2,000 in diluting buffer) (Sigma) was also used. The secondary reagents were incubated overnight at 4° C.; plates were then washed twice with PBS/Tween and twice with PBS. The alkaline phosphatase substrate (Sigma) diluted in bicarbonate buffer was then added to the wells and the plates read after 30 min or 1 h at a spectrophotometer set at 450 nm. For the competitive assay, the amount of antibody (or serum dilution) that gave 50% of the maximum binding to the antigen on the solid phase was pre-incubated for 1 h at 37° C. with different amounts of competitors (20, 10, 5, 2.5, 1.25, 0.6 μg/ml) or buffer (diluting buffer as the one used in the direct ELISA) and then transferred to the antigen-coated plates. The assay was then carried on as the direct binding assay. For the competitive ELISAs presented in this paper in particular, the following experimental conditions were used. (1) Competitive ELISA using tTG-coated plates. Plates coated with human recombinant tTG were purchased from Eurospital. Serum samples in diluting buffer (serum dilution ranged from 1:400 to 1:1,600 corresponding to 50% maximal binding to solid-phase tTG) were pre-incubated with increasing concentration of competitors (synthetic peptides or recombinant human tTG: 20, 10, 5, 2.5, 1.25, 0.6 μg/ml) for 1 h at 37° C. The mixture was then transferred to the tTG-coated plate. The remainder of the assay was performed as the direct binding assay. Results are expressed as: […]

solid-phase TLR4 peptide = target: T2, solid-phase TLR4 peptide (Homo sapiens, UniProt O00206); test: Competitive ELISA on solid-phase TLR4 peptide; type: binding; details: liquid-phase competitor
T2 construct: made in house; host or cells: chemical solid-phase synthesis (FMOC)
Experimental: as §1

[1] = test system: T84 human intestinal epithelial cell line; test: [3H] mannitol flux across T84 monolayers; type: cell-based; details: pre-incubation of antibodies with the substance; T84, 3 h
Experimental: T84 cells obtained from the American Type Culture Collection (Manassas, Va., United States) were grown in a 5% CO2 humidified incubator at 37° C. on 162-cm^2 flasks (Corning Costar, Acton, Mass., United States) with media containing a 1:1 mixture of Ham's F-12 nutrient mixture and DMEM supplemented with 6% heat-inactivated fetal bovine serum, 15 mM HEPES, 14.3 mM NaHCO3, and antibiotics (penicillin and streptomycin)-antimycotics (pH 7.4). Cells were passaged weekly on reaching confluence. For experiments, cells were plated onto collagen-coated permeable supports, where they were fed every 3 d and used from days 7-14 (within fifth passage).
Confluent T84 monolayers grown on 4.7 cm^2 transwell inserts were incubated in HEPES-phosphate-buffered Ringer solution (HPBR, containing 135 mM NaCl, 5 mM KCl, 3.33 mM NaHPO4, 1 mM CaCl2, 1 mM MgCl2, 10 mM glucose, and 5 mM HEPES [pH 7.4]) for 30 min, followed by treatment with basolaterally applied Igs (20 μg/ml) in the presence of [^3H] mannitol (5 μCi/ml) in the basolateral compartment. Apical solution was sampled every 30 min (to detect the presence of [^3H] mannitol) and exchanged with fresh HPBR buffer solution for a total of 4 h. The collected apical samples were placed in vials containing scintillation fluid and analyzed for the presence of [^3H] mannitol by scintillation counter.

Human monocytes = test: Stimulation of monocytes, FACS analysis of activation markers; type: cell-based; details: monocytes incubated overnight, antibody preparations 20 μg/ml, LPS 1 μg/ml
Experimental: Human monocytes were isolated from normal donors and incubated overnight at a density of 1×10^6 cells/ml in RPMI 10% FCS in 24-well plates in the presence of the antibody preparations (20 μg/ml) or lipopolysaccharide (LPS) (1 μg/ml) (Sigma). The medium used and all the antibody preparations were treated with Detoxi-gel endotoxin-removing columns (Pierce). Presence of LPS contaminants in the antibody preparation and buffers as well as in the culture medium was assessed using the HEK-Blue LPS Detection Kit (Invivogen); all the antibody preparation and buffers used throughout the study were devoided of LPS contaminants. Monocytes were then used for fluorescence-activated cell sorting (FACS) analysis.
Cells were incubated with R-phycoerythrin directly conjugated anti-CD1, -CD83, and -CD86 antibodies for 30 min on ice. […] Samples were run on a FACScan flow cytometer (Becton Dickinson, Mountain View, Calif., United States). All the antibodies used were purchased from Immunotech (Marseille, France).

solid-phase HSP60 = target: T3, solid-phase HSP60 (Homo sapiens, UniProt P10809); test: Competitive ELISA on solid-phase HSP60; type: binding; details: pre-incubation with competitor
T3 construct: purchased Stressgen
T3 sequence (P10809 27-573): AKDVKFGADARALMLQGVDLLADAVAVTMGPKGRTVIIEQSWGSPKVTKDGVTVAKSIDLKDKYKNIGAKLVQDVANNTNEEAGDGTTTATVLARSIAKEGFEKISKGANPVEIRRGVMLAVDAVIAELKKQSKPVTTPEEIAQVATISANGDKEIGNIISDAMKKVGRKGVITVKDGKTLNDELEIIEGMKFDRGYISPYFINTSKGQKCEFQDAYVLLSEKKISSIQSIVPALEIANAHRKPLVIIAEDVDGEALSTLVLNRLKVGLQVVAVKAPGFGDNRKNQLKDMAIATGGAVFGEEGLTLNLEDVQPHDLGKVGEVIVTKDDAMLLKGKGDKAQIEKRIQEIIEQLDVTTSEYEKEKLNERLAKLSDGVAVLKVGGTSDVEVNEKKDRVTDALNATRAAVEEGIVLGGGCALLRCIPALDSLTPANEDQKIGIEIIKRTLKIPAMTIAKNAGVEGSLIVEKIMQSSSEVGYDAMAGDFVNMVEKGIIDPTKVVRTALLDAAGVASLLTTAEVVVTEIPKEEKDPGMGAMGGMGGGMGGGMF
Experimental: as §1, with “Serum samples in diluting buffer (serum dilution ranged from 1:400 to 1:1,600 corresponding to 50% maximal binding to solid-phase tTG) were pre-incubated with increasing concentration of competitors (synthetic peptides or recombinant human tTG: 20, 10, 5, 2.5, 1.25, 0.6 μg/ml) for 1 h at 37° C. The mixture was then transferred to the tTG-coated plate. The remainder of the assay was performed as the direct binding assay.” left out

solid-phase desmoglein 1 = target: T4, solid-phase desmoglein 1 (Homo sapiens, UniProt Q02413); test: Competitive ELISA with desmoglein 1-coated plates; type: binding; details: liquid-phase competitor, 0.6-20 μg/ml
T4 construct: purchased MBL
T4 sequence (Q02413 50-1049): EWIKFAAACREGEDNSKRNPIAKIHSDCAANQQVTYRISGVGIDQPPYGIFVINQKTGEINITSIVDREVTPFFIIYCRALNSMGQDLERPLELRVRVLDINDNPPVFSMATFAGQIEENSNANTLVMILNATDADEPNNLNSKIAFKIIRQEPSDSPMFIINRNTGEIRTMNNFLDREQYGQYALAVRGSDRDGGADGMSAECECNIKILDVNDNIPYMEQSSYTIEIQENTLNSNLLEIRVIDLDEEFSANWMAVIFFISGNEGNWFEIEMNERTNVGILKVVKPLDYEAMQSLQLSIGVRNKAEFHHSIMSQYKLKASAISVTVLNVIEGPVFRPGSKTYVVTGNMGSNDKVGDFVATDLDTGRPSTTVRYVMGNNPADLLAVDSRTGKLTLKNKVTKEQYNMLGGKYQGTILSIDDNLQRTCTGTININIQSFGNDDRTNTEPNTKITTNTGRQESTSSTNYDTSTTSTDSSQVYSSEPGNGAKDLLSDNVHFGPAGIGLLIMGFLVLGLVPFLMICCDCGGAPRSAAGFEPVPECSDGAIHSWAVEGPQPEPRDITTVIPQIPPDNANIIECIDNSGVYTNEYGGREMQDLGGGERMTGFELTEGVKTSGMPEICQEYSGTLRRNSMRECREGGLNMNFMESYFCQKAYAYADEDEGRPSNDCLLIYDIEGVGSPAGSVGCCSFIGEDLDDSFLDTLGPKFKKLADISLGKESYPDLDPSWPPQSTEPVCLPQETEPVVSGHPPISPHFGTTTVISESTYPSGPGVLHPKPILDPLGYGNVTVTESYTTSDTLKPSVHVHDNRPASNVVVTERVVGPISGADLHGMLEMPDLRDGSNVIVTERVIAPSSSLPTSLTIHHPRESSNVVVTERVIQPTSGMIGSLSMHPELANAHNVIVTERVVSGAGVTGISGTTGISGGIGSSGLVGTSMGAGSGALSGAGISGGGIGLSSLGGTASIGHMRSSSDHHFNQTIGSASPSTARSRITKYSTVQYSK
Experimental: Desmoglein 1-coated plates were purchased from MBL (Woburn, Mass., United States). Serum samples in diluting buffer (serum dilution ranged from 1:400 to 1:800 corresponding to 50% maximal binding to solid-phase desmoglein 1) were pre-incubated with increasing concentrations of competitors (synthetic peptides and recombinant human tTG: 20, 10, 5, 2.5, 1.25, 0.6 μg/ml) for 1 h at 37° C. The mixture was then transferred to the desmoglein-coated plate. In this particular assay, the authors used the desmoglein 1 peptide as liquid-phase competitor, since the only liquid-phase recombinant desmoglein 1 available is an Fc chimera.

Molecule: VTLPKDSDVELP [irrelevant control peptide]
- inhibition of antibody binding to solid-phase tTG by liquid-phase competitor (solid-phase tTG): not
- inhibition of binding of anti-celiac peptide antibodies to solid-phase TLR4 peptide (solid-phase TLR4 peptide): not
- blocking of the effect of anti-celiac peptide antibodies on cell permeability [1]: not

Molecule: lipopolysaccharide [LPS]
- Percentage of positive cells, CD83 (Human monocytes; medium alone 9.4%): 45%
- Percentage of positive cells, CD40 (Human monocytes; medium alone 62.3%): 89%

Molecule: VIQVGGSNVLDI [VP-7 peptide]
- inhibition of antibody binding to solid-phase tTG by liquid-phase competitor (solid-phase tTG): inhibited
- inhibition of antibody binding to solid-phase HSP60 by liquid-phase competitor (solid-phase HSP60): inhibited
- inhibition of binding of anti-celiac peptide antibodies to solid-phase TLR4 peptide (solid-phase TLR4 peptide): Inhibition
- inhibition of binding of anti-celiac peptide antibodies to solid-phase desmoglein 1 (solid-phase desmoglein 1): inhibited

Molecule: RIRVGQSMNMGS [tTG peptide]
- inhibition of antibody binding to solid-phase tTG by liquid-phase competitor (solid-phase tTG): inhibited
- inhibition of antibody binding to solid-phase HSP60 by liquid-phase competitor (solid-phase HSP60): inhibited

Molecule: VVKVGGSSSLGW [celiac peptide]
- inhibition of antibody binding to solid-phase tTG by liquid-phase competitor (solid-phase tTG): inhibited
- inhibition of antibody binding to solid-phase HSP60 by liquid-phase competitor (solid-phase HSP60): inhibited
- inhibition of binding of anti-celiac peptide antibodies to solid-phase TLR4 peptide (solid-phase TLR4 peptide): Inhibition
- inhibition of binding of anti-celiac peptide antibodies to solid-phase desmoglein 1 (solid-phase desmoglein 1): inhibited
- blocking of the effect of anti-celiac peptide antibodies on cell permeability [1]: blocked

Molecule: VLKMAGNSFQEN [TLR4 peptide]
- inhibition of binding of anti-celiac peptide antibodies to solid-phase TLR4 peptide (solid-phase TLR4 peptide): Inhibition
- inhibition of binding of anti-celiac peptide antibodies to solid-phase desmoglein 1 (solid-phase desmoglein 1): inhibited

Molecule: LSSLGGTASIGH [desmoglein 1 peptide]
- inhibition of binding of anti-celiac peptide antibodies to solid-phase desmoglein 1 (solid-phase desmoglein 1): inhibited

B1: human recombinant tTG: commercially available recombinant human tissue transglutaminase used as competitor (protein, UniProt P21980 2-687, looked up)
Protein-glutamine …: AEELVLERCDLELETNGRDHHTADLCREKLVVRRGQPFWLTLHFEGRNYEASVDSLTFSVVTGPAPSQEAGTKARFPLRDAVEEGDWTATVVDQQDCTLSLQLTTPANAPIGLYRLSLEASTGYQGSSFVLGHFILLFNAWCPADAVYLDSEEERQEYVLTQQGFIYQGSAKFIKNIPWNFGQFEDGILDICLILLDVNPKFLKNAGRDCSRRSSPVYVGRVVSGMVNCNDDQGVLLGRWDNNYGDGVSPMSWIGSVDILRRWKNHGCQRVKYGQCWVFAAVACTVLRCLGIPTRVVTNYNSAHDQNSNLLIEYFRNEFGEIQGDKSEMIWNFHCWVESWMTRPDLQPGYEGWQALDPTPQEKSEGTYCCGPVPVRAIKEGDLSTKYDAPFVFAEVNADVVDWIQQDDGSVHKSINRSLIVGLKISTKSVGRDEREDITHTYKYPEGSSEEREAFTRANHLNKLAEKEETGMAMRIRVGQSMNMGSDFDVFAHITNNTAEEYVCRLLLCARTVSYNGILGPECGTKYLLNLNLEPFSEKSVPLCILYEKYRDCLTESNLIKVRALLVEPVINSYLLAERDLYLENPEIKIRILGEPKQKRKLVAEVSLQNPLPVALEGCTFTVEGAGLTEEQKTVEIPDPVEAGEEVKVRMDLLPLHMGLHKLVVNFESDKLKAVKGFRNVIIGPA
- inhibition of binding of anti-celiac peptide antibodies to solid-phase desmoglein 1 (solid-phase desmoglein 1): inhibited
- blocking of the effect of anti-celiac peptide antibodies on cell permeability [1]: blocked

Reference: patent publication US20100196919A1, “PEPTIDES, ANTIBODIES AND FRAGMENTS THEREOF FOR THE TREATMENT AND DIAGNOSTIC OF CELIAC DISEASE” (UNIVERSITÀ DEGLI STUDI DI VERONA, priority 2007, published 2010)
